What was measured:
Experiment in all cases: SEC
[1] = target: T1, KaiC-pSpT-mimicking S431D/T432E KaiC mutant (Synechococcus elongatus PCC 7942, UniProt Q79PF4 1-519, S431D | T432E)
T1 sequence: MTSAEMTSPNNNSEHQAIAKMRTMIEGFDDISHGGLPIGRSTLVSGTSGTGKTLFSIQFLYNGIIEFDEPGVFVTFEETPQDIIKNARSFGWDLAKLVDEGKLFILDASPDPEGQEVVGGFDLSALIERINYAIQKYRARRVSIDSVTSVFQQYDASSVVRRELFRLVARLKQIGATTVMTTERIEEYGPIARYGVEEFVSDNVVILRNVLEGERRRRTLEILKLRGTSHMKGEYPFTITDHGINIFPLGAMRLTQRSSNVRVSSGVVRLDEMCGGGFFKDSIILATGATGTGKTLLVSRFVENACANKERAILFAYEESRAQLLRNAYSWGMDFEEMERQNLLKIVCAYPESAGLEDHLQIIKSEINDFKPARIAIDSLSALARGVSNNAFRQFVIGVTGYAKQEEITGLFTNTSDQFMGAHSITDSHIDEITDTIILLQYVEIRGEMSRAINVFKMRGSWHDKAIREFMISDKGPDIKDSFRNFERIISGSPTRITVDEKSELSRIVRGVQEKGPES

[2] = target: T2, KaiC^C306A (Synechococcus elongatus PCC 7942, UniProt Q79PF4 1-519, C306A)
T2 sequence: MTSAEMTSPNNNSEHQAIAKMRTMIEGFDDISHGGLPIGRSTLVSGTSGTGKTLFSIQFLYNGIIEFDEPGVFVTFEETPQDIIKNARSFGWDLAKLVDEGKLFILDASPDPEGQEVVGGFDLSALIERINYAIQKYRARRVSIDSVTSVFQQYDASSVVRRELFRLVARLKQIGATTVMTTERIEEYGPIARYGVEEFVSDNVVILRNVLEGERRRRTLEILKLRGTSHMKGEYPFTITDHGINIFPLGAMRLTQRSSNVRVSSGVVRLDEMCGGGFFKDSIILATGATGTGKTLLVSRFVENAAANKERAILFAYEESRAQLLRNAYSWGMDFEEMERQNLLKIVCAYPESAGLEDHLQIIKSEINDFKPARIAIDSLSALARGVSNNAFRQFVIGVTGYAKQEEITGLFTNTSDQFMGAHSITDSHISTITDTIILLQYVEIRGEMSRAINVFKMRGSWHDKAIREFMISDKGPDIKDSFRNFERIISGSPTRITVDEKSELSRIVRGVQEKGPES

[3] = target: T3, wild-type KaiC (Synechococcus elongatus PCC 7942, UniProt Q79PF4 1-519)
T3 sequence: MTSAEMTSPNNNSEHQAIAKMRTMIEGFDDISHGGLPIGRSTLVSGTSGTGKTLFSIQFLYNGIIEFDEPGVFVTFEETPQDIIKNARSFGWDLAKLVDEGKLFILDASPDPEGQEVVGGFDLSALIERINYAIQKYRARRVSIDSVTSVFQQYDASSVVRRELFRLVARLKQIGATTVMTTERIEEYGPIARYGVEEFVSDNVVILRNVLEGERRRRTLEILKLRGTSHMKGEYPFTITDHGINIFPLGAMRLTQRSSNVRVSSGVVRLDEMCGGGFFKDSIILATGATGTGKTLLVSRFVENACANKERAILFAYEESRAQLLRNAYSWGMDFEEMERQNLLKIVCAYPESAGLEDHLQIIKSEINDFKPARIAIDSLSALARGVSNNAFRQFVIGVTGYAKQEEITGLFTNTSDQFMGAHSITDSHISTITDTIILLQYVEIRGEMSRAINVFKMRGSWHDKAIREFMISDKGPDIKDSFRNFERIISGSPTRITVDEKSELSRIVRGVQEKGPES

[4] = target: T4, KaiC^S157P (Synechococcus elongatus PCC 7942, UniProt Q79PF4 1-519, S157P)
T4 sequence: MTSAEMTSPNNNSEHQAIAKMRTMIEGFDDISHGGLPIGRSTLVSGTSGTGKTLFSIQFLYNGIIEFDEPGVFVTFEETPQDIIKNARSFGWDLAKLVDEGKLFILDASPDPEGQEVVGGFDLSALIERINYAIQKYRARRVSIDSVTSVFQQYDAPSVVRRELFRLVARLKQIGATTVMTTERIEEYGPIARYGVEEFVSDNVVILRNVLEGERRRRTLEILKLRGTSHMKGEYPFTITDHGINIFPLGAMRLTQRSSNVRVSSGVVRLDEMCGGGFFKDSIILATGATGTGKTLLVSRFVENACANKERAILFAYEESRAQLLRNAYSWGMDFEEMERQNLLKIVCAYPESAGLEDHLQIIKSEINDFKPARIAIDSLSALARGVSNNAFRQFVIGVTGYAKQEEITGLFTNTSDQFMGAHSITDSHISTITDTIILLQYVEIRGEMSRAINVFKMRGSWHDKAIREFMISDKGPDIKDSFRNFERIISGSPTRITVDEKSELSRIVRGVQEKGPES

[5] = target: T5, KaiC^F470Y (Synechococcus elongatus PCC 7942, UniProt Q79PF4 1-519, F470Y)
T5 sequence: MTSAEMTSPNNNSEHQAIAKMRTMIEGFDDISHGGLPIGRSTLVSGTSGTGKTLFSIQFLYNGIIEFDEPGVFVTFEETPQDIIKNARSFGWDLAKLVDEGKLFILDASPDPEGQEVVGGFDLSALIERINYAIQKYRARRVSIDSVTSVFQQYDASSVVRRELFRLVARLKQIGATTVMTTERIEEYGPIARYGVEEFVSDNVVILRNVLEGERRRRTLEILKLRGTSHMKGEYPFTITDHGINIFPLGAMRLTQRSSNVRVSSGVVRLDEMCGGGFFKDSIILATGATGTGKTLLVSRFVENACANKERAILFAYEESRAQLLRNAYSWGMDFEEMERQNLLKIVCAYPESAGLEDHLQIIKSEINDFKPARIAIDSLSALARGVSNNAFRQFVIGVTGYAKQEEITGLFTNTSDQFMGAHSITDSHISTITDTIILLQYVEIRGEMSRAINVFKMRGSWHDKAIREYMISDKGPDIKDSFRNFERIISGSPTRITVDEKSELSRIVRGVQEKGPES

koff [1]: 1.56e-06 s⁻¹ | binding result [2]: binds | koff [3]: 2.39e-05 s⁻¹ | binding result [4]: binds | binding result [5]: binds
B1: KaiB (natural protein)
chain: MSPRKTYILKLYVAGNTPNSVRALKTLKNILEVEFQGVYALKVIDVLKNPQLAEEDKILATPTLAKVLPLPVRRIIGDLSDREKVLIGLDLLYGELQDSDDF

Source: PMC9135616 (Biophysics and Physicobiology, 2022)
